Measurements from paper PMC2965676, “The C-Terminal Domain of the MutL Homolog from Neisseria gonorrhoeae Forms an Inverted Homodimer” (PLoS ONE, 2010).

Target: the molecule itself
Assay: SEC; Superose 6 HR 10/30; 10 mM Hepes pH 8.0, 300 mM KCl, 10% glycerol, 1 mM 2-mercaptoethanol; 0.4 ml/min; calibrated with molecular-mass markers

B1: C-terminal domain of the MutL homolog of Neisseria gonorrhoeae (NgoL-CTD), wild type (domain or fragment, UniProt Q5F8M6 458-658, looked up)
chain: IPSQSELPPLGFAIAQLLGIYILAQAEDSLLLIDMHAAAERVNYEKMKRQRQENGNLQSQHLLIPVTFAASHEECAALADHAETLAGFGLELSDMGGNTLAVRAAPVMLGKSDVVSLARDVLGELAQVGSSQTIASHENRILATMSCHGSIRAGRRLTLPEMNALLRDMENTPRSNQCNHGRPTWVKLTLKELDTLFLRGQ
notes: MutL homolog (NgoL) of Neisseria gonorrhoeae, C-terminal domain, residues 458-658; In the model, residues 463-654 (monomer A) and 464-656 (monomer B) are built; 587-591 are disordered; also called C-terminal domain of NgoL; source: selenomethionine-labelled form in E. coli B834
stoichiometry N: 2
